Columns and labels:
Assay in all cases: ELISA
(NANP)9 = biological target: T1, (NANP)9 (Plasmodium falciparum)
T1 chain: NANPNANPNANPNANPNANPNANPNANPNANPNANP

peptide 29 = biological target: T2, peptide 29 (Plasmodium falciparum 3D7)
T2 chain: NANPNANPNANPNAN

(NANP)3 = biological target: T3, (NANP)3 (Plasmodium falciparum)
T3 chain: NANPNANPNANP

(NANP)5 = biological target: T4, (NANP)5 (Plasmodium falciparum)
T4 chain: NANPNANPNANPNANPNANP

(NANP)6 = biological target: T5, (NANP)6 (Plasmodium falciparum)
T5 chain: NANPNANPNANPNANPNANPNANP

(NANP)7 = biological target: T6, (NANP)7 (Plasmodium falciparum)
T6 chain: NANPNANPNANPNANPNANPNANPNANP

(NANP)8 = biological target: T7, (NANP)8 (Plasmodium falciparum)
T7 chain: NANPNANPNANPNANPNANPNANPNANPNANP

Measured: binding result

B1: CIS43 (antibody, V domains shown)
VH: QVQLVQSGAEVKKPGASVKVSCKASGYTFTSYAIHWVRQAPGQRLEWMGWIKAGNGNTRYSQKFQDRVTITRDTSTTTAYMELSSLRSEDTAVYYCALLTVLTPDDAFDIWGQGTMVTVSS
VL: not shown
binds: (NANP)9

B2: MGU12 (antibody, V domains shown)
VH: QVQLVESGGGVVQPGRSLRLSCAASGFSFSSYGMHWVRQAPGKGPEWVAVIWHDGSYSYYADSVRGRFTISRDNSKNTLYLQMNSLRPEDTGMYHCVKVEDYVRGSSHGGAFHIWGQGTMVTVSS
VL: DIQMTQSPSTLSASVGDRVTITCRASQTINNWLAWYQWKPGKAPELLIYKASSLESGVPSRFSGSGSGTEFTLTISSLQPDDFATYYCQQYSSYWTFGQGTKVDIK
binds: all assays above

B3: 1210 (antibody, V domains shown)
VH: QVQLVESGGGVVQPGRSLRLSCAASGFTFSNYGMHWVRQAPGKGLEWVAVIWYDGSKKYYADSVKGRFTISRDNSKNTLYLQMNSLRAEDTAVYYCARVRDSSDYYGDAFDIWGQGTMVTVSS
VL: DIQMTQSPSTLSASVGDRVTITCRASQSISSWLAWYQQKPGKAPKLLIYKASNLESGVPLRFSGSGSGTEFTLTISSLQPDDFATYYCQQYNNYWTFGQGTKVEIK
not listed: (NANP)3 | (NANP)5
binds: all other assays above

B4: 311 (antibody, V domains shown)
VH: QVQLVESGGGVVPPGRSLRLSCATSGFTFSNYGMHWVRQAPGKGLEWVAIIWYDGSRNFYAASVEGRFTISRDNSKNTLYLQMNSLRVEDTAVYYCARAAYYDTSGYGDYWGQGTLVTVSS
VL: QSVLTQPPSVSGAPGQTVTISCTGGSSNIGAGYDVHWYQQLPGTAPKLLIYGNINRPSGVPDRFSGSKSGTSASLAITGLQAEDEADYYCQSYDRRLSGSWVFGGGTKLTVL
binds: all assays above

B5: 317 (antibody, V domains shown)
VH: QMQLVESGGGVVQPGRSLRLSCTASGFTFSTYAMHWVRQSPGQGLQWVAVISYHSTNKYYEDSVRGRFTISRDNSKNTLYLQMNSLRAEDTAVYYCARDGYSSSFFDFWGQGTLVTVSS
VL: DIQMTQSPSTLSASVGDRVAITCRASQSISRWLAWYQQQPGKAPKLLMSGASVLESGVPSRFSGSGSGTEFTLTISSLQPDDFATYYCQHYNSYFVTFGQGTKVEIK
not listed: (NANP)6
binds: all other assays above
